This experiment deals with T1, B2 C-9ASM (pAD-GAL4 fusion, yeast two-hybrid prey) (flock house virus).
T1 construct: Carries 9 alanine substitutions at the C-terminus; also called FHV B2 c-9ASM
The experiment in a line: yeast two-hybrid (Table 1: colony -, β-GAL White).

B1: PAZ domain of Arabidopsis Dicer-like protein 1 (DCL1) (pBD-GAL4 fusion, yeast two-hybrid bait) (other)
chain: MKLLSSIEQACDICRLKKLKCSKEKPKCAKCLKNNWECRYSPKTKRSPLTRAHLTEVESRLERLEQLFLLIFPREDLDMILKMDSLQDIKALLTGLFVQDNVNKDAVTDRLASVETDMPLTLRQHRISATSSSEESSNKGQRQLTVSEVEEDLSKGKLMMADGCMVAEDLIGKIVTAAHSGKRFYVDSICYDMSAETSFPRKEGYLGPLEYNTYADYYKQKYGVDLNCKQQPLIKGRGVSYCKNLLSPRFEQSGESETVLDKTYYVFLPPELCVVHP
notes: domain: BD;domain: PAZ domain; PAZ domain amplified by PCR and inserted into SalI and PstI digested pBD-GAL4 cam; also called DCL1-PAZ; PAZ domain of DCL1
Regarding B1, the binding result is listed as “no binding”.

The values are drawn from US20160040133A1 (published 2016).
